This is an account of results in PMC7857026, “NbWRKY40 Positively Regulates the Response of Nicotiana benthamiana to Tomato Mosaic Virus via Salicylic Acid Signaling”.

The target of the data set is NbWRKY40 (GST fusion implied by GST control) (Nicotiana benthamiana, UniProt A0A7T1TE48 1-255). The data set is described as follows: EMSA; LightShift Chemiluminescent EMSA Kit (Thermo Scientific), manufacturer's instructions; buffer, salt, pH and temperature not stated. Particulars: protein: recombinant; label: biotin (end label); blunt.
Chain of NbWRKY40 (GST fusion implied by GST control) (A0A7T1TE48 entry or part of it): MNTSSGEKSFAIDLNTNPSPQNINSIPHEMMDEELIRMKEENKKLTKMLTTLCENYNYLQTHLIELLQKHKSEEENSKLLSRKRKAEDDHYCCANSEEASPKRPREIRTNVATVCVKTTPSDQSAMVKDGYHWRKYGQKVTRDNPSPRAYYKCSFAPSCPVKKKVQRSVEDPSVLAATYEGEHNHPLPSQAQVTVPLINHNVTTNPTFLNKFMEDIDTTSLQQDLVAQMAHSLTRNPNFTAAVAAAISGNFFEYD

B1: NbICS1 promoter W-box fragment (84 bp) (dsDNA)
DNA 1: TAGTACAGAATATGAAGAAAGCTTTGCATATGGTGTTTATTGACCTAGAGAAAGTGTACATCAAGGTCCCTAGGGATGTCCTTT
DNA 2: AAAGGACATCCCTAGGGACCTTGATGTACACTTTCTCTAGGTCAATAAACACCATATGCAAAGCTTTCTTCATATTCTGTACTA
For B1, the binding result is “binds”.
